± gives the uncertainty stated by the source.

The nature of this series: protein stability index of a GFP-peptide fusion (yeast GPS) (PSI 1-4); higher = more stable; sorted into four equal gates, so the index is relative within each strain. Summed up:
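Plasmids in a pooled yeast library fused tiled 17-residue yeast protein peptides downstream of GFP and also expressed Cherry. Mid-log cultures grown without leucine were sorted into four equal gates by GFP/Cherry fluorescence ratio. Each gate's plasmids were PCR-amplified and Illumina-sequenced, and reads were matched to strains by barcodes. The protein stability index is derived by multiplying each gate's read frequency by its gate number and summing the results.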

Turning to SKYGMLLLRCDDRVDKK [POP3], the protein stability index amounted to 3.34 ± 0.14 (doa10∆), 3.35 ± 0.087 (pdr5∆), 3.03 ± 0.076 (san1∆) and 3.09 ± 0.077 (ubr1∆).

Consider IYLLFQSSGKLKEYLDL [YDL116W/NUP84], for which the protein stability index is 2.51 ± 0.051 (doa10∆), 2.44 ± 0.052 (pdr5∆), 2.52 ± 0.048 (san1∆) and 2.6 ± 0.038 (ubr1∆).

As to FRFQGGIIVAVDSRATA [PRE2], the protein stability index by setting is: (doa10∆) 1.45 ± 0.063; (pdr5∆) 1.54 ± 0.072; (san1∆) 1.3 ± 0.12; (ubr1∆) 1.62 ± 0.078.

AIGYEPLSLTHRDKNKM [DIS3]: the protein stability index (doa10∆) stood at 2.83 ± 0.058, the protein stability index (pdr5∆) stood at 2.9 ± 0.061, the protein stability index (san1∆) came out at 2.88 ± 0.063 and the protein stability index (ubr1∆) stood at 2.93 ± 0.042.

With FLQDKVQIKDVNDRYQI [CSI1], the protein stability index is 3.28 ± 0.18 (doa10∆), 1.58 ± 0.12 (pdr5∆), 1.05 ± 0.17 (san1∆) and 3.37 ± 0.21 (ubr1∆).

Sequence QTKDSVKEIVLPLFYDL [IRR1] displayed a protein stability index (doa10∆) of 2.42 ± 0.06, a protein stability index (pdr5∆) of 2.4 ± 0.057, a protein stability index (san1∆) of 2.6 ± 0.05 and a protein stability index (ubr1∆) of 2 ± 0.035.

Turning to NIIQAKRDAKAAGSYYV [RPL7A], the protein stability index reads like this: (doa10∆) 3.39 ± 0.11; (pdr5∆) 3.24 ± 0.082; (san1∆) 3.11 ± 0.057; (ubr1∆) 2.64 ± 0.087.

Turning to IKYEFNGIPLKSKERSS [YMR129W/POM152], the protein stability index was found to be 2.39 ± 0.11 (doa10∆), 1.24 ± 0.057 (pdr5∆), 1.52 ± 0.26 (san1∆) and 2.98 ± 0.16 (ubr1∆).

WNLEKWREIIEKVRDYE [IRR1]: the protein stability index by setting is: (doa10∆) 3.06 ± 0.12; (pdr5∆) 3.41 ± 0.15; (san1∆) 3.3 ± 0.054; (ubr1∆) 3.19 ± 0.066.

For RFTPGSFTNYITRSFKE [RPS0A], the protein stability index worked out at 3.03 ± 0.16 (doa10∆), 3.36 ± 0.1 (pdr5∆), 2.93 ± 0.1 (san1∆) and 3.07 ± 0.11 (ubr1∆).

Turning to LYPSFKPIYKDTRFGGR [SSN2], the protein stability index turned out to be 3.17 ± 0.15 (doa10∆), 3.16 ± 0.087 (pdr5∆), 3.1 ± 0.047 (san1∆) and 3.41 ± 0.14 (ubr1∆).

The sequence PLLLVGLDKFSNIDIRV [RPS16A] returned a protein stability index (doa10∆) of 1.83 ± 0.073, a protein stability index (pdr5∆) of 1.76 ± 0.049, a protein stability index (san1∆) of 1.74 ± 0.094 and a protein stability index (ubr1∆) of 2.11 ± 0.044.

As to LPLLYNFNPDNGFAPIS [FAS1], the protein stability index (doa10∆) came to 2.03 ± 0.12, the protein stability index (pdr5∆) was determined as 2.63 ± 0.054, the protein stability index (san1∆) was determined as 2.47 ± 0.093 and the protein stability index (ubr1∆) came out at 2.72 ± 0.068.

Consider AISKKDLEEVKRFQVLY [SEC65], for which the protein stability index runs as follows: (doa10∆) 2.6 ± 0.16; (pdr5∆) 3.02 ± 0.1; (san1∆) 2.8 ± 0.29; (ubr1∆) 2.3 ± 0.13.

Consider RLKGDIFCVGSGQTFAY [PRE2], for which the protein stability index reads like this: (doa10∆) 2.39 ± 0.05; (pdr5∆) 1.77 ± 0.041; (san1∆) 2.25 ± 0.019; (ubr1∆) 1.79 ± 0.044.

For RPSITEAMMLKEEGLQQ [MED1], the protein stability index was determined as 3.41 ± 0.25 (doa10∆), 3.65 ± 0.2 (pdr5∆), 3.16 ± 0.061 (san1∆) and 2.94 ± 0.21 (ubr1∆).

As to ASIESADILCPLLESFI [IRR1], the protein stability index (doa10∆) was determined as 3.19 ± 0.14, the protein stability index (pdr5∆) was 2.48 ± 0.11 and the protein stability index (ubr1∆) stood at 2.85 ± 0.13.

PQEETITFLIEKAKEMI [ECM29] gave a protein stability index (doa10∆) of 3.03 ± 0.092, a protein stability index (pdr5∆) of 3.18 ± 0.13, a protein stability index (san1∆) of 2.95 ± 0.069 and a protein stability index (ubr1∆) of 3.16 ± 0.075.

In turn, QLYHLEQQKEELTDKLS [SMC1] displayed a protein stability index (doa10∆) of 2.23 ± 0.16, a protein stability index (pdr5∆) of 3.11 ± 0.081, a protein stability index (san1∆) of 2.78 ± 0.15 and a protein stability index (ubr1∆) of 3.14 ± 0.11.

For the sequence KKLESQESLVKLFTTNE [RPN5], the protein stability index was 2.94 ± 0.11 (doa10∆), 3.12 ± 0.13 (pdr5∆), 3.22 ± 0.081 (san1∆) and 2.88 ± 0.12 (ubr1∆).

In turn, RDEMSKAELPQWYTLQS [MED8] gave a protein stability index (doa10∆) of 2.92 ± 0.05, a protein stability index (pdr5∆) of 3.12 ± 0.043, a protein stability index (san1∆) of 2.87 ± 0.038 and a protein stability index (ubr1∆) of 3.01 ± 0.043.

As for IDDNYIVVVIEIITSLS [SRB8], the protein stability index (doa10∆) worked out at 2.6 ± 0.11, the protein stability index (pdr5∆) turned out to be 2.87 ± 0.081, the protein stability index (san1∆) worked out at 2.16 ± 0.082 and the protein stability index (ubr1∆) amounted to 2.22 ± 0.086.

As for FTIVSLVQLKKFSDLKF [YML103C/NUP188], the protein stability index (doa10∆) was found to be 2.37 ± 0.17, the protein stability index (pdr5∆) was 2.5 ± 0.097, the protein stability index (san1∆) came to 2.7 ± 0.1 and the protein stability index (ubr1∆) is 2.06 ± 0.073.

On to GEKIDSNKPIFLFAPEL [SWI1], for which the protein stability index worked out at 2.62 ± 0.1 (doa10∆), 2.54 ± 0.21 (pdr5∆), 2.59 ± 0.21 (san1∆) and 2.91 ± 0.23 (ubr1∆).

As to LCKSATTKMWPTNCPLR [BRR2], the protein stability index runs as follows: (doa10∆) 2.82 ± 0.13; (pdr5∆) 2.68 ± 0.12; (san1∆) 2.58 ± 0.081; (ubr1∆) 2.75 ± 0.094.

On to SLIENKKAKLVLIANDV [RPL8B], for which the protein stability index (doa10∆) turned out to be 2.32 ± 0.13, the protein stability index (pdr5∆) worked out at 3.23 ± 0.17, the protein stability index (san1∆) was found to be 2.99 ± 0.12 and the protein stability index (ubr1∆) worked out at 2.35 ± 0.14.

For the sequence QGPVKNTQLHGPSATDP [RGR1], the protein stability index runs as follows: (doa10∆) 2.93 ± 0.062; (pdr5∆) 3.06 ± 0.047; (san1∆) 2.97 ± 0.053; (ubr1∆) 3.02 ± 0.035.

The record behind these values is the supplement of paper PMC9732359.
